Measurements published in paper PMC5843810 (EJNMMI Radiopharmacy and Chemistry, 2016).
Bridges are numbered along the chain shown (N, C = ends). [ ]: non-standard residue; d: D form. Ahx = NCCCCCC(=O)O; βAla = NCCC(=O)O

B1: [99mTc(N)(NAP-NS1)(PNP3)]+ (peptide)
chain: CXXXDHFRWG
modifications: Ahx at 2, βAla at 3, Nle at 4 (each written X); D-Phe at 7; C-terminal amide; [99mTc(N)(PNP3)] label (PNP3 = N,N-bis(dimethoxypropylphosphinoethyl)methoxyethylamine)
B2: NAP-NS2, lactam bridge-cyclized H-Cys-Ahx-βAla3-c[Lys4-Glu-His-D-Phe-Arg-Trp-Glu10]-Arg11-Pro-Val-NH2 (peptide)
chain: H-C[Ahx][βAla]KEH[dF]RWERPV-NH2
modifications: lactam 4-10
SMILES: CC(C)[C@H](NC(=O)[C@@H]1CCCN1C(=O)[C@H](CCCNC(=N)N)NC(=O)[C@@H]1CCC(=O)NCCCC[C@H](NC(=O)CCNC(=O)CCCCCNC(=O)[C@@H](N)CS)C(=O)N[C@@H](CCC(=O)O)C(=O)N[C@@H](Cc2c[nH]cn2)C(=O)N[C@H](Cc2ccccc2)C(=O)N[C@@H](CCCNC(=N)N)C(=O)N[C@@H](Cc2c[nH]c3ccccc23)C(=O)N1)C(N)=O

What was measured:
MC1R [1] = molecular target: T1, MC1R (mouse (endogenous in B16/F10), UniProt Q01727 1-315); assay: radioligand binding; receptor affinity (Kd) of the 99mTc-labelled peptide; B16/F10 melanoma cells are the only cells named; conditions: one partner purified
T1 construct: also called MCR1R

MC1R [2] = molecular target: T1, MC1R; assay: radioligand binding; MC1R binding affinity (Ki) of the unlabelled peptides determined in B16/F10 melanoma cells; the competing ligand is not named; conditions: one partner purified

T1 sequence (Q01727 whole entry): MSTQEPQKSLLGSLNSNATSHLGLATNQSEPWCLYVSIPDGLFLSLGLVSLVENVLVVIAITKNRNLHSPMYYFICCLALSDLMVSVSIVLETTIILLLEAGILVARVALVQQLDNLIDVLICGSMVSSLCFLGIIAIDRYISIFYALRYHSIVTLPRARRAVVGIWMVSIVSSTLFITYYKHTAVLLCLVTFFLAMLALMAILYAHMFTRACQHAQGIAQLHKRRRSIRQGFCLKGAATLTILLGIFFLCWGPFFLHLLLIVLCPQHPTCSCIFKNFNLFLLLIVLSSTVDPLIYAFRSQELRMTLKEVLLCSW

Row | Binder | Kd (MC1R [1]) | Ki (MC1R [2])
1 | B1 | 7.1 ± 0.5 nM | 
2 | CXXXDHFRWG (Ahx at 2, βAla at 3, Nle at 4 (each written X); D-Phe at 7; C-terminal amide) [NAP-NS1, linear H-Cys-Ahx-βAla-Nle-Asp-His-D-Phe-Arg-Trp-Gly-NH2] |  | 0.9 ± 0.3 nM
3 | B2 |  | 7.1 ± 2.4 nM
